The results in this text go back to US20070031511A1 (published 2007).

Experiment [1] addresses Ggly receptor on IMGE-5 cells. The experiment can be described thus: cell-based or functional assay.
Experiment [2] has as its target T1, human CCK-2 receptor (human, UniProt P32239 1-447).
T1 construct: whole, on cells; One protein on two cell types (transfected COS-7, Jurkat); also called CCK-B receptor
T1 sequence (looked up): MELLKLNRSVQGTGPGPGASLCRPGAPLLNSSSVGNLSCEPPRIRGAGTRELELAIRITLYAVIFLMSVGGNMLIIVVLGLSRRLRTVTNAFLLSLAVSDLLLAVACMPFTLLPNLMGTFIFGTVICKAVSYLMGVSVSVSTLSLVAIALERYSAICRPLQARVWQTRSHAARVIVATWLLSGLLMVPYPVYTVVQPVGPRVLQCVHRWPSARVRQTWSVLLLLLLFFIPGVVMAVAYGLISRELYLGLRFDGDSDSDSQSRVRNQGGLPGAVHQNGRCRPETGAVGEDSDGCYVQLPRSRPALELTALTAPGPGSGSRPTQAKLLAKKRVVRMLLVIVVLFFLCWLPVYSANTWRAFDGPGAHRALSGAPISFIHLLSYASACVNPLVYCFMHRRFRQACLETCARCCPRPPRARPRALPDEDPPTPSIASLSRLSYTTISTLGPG
The experiment can be described thus: displacement of [125I]-BH-CCK8, Jurkat cells; reference Gamide. (In general: Loss of bound radioactivity is the signal in a displacement assay; it reports binding, not function.)

Experiment [3] concerns the target T1, human CCK-2 receptor. The experiment can be described thus: displacement of [125I]-BH-CCK8, CCK-2 receptor on Jurkat cells. The procedure: (§1) Non-specific binding was evaluated with […] of unlabelled CCK₈. Incubation was stopped by adding 2 ml of ice-cold PBS containing 2% bovine serum albumin. After centrifugation, supernatants were removed and the radioactivity bound to the cell membranes was measured in a γ-counter (LKB, Wallac, Finland).
(§2) Values of the % maximum binding in the absence of competitor and of the IC₅₀ were obtained from the data presented in FIG. 21 by least squares fitting with the program Sigmaplot. Values from the indicated number of independent experiments were combined to obtain the mean values (±S.E.) presented above. Data were analyzed by one-way analysis of variance.

Experiment [4] has as its target T1, human CCK-2 receptor. The experiment can be described thus: displacement of [125I]-BH-CCK8, transfected COS-7 cells; reference Gamide.
Experiment [5] concerns the target T1, human CCK-2 receptor. The experiment can be described thus: single experiment of FIG. 21, displacement of [125I]-BH-CCK8, transfected COS-7 cells. The text has this:
The lines of best fit shown in FIG. 21 were obtained by nonlinear regression to a single site model with the program Sigmaplot.

The target of experiment [6] is T1, human CCK-2 receptor. The experiment can be described thus: fitted [125I]-BH-CCK8 binding without competitor, displacement curve, Jurkat cells. The procedure:
as §1, §2

For experiment [7], the target named is T1, human CCK-2 receptor. The experiment can be described thus: displacement of [125I]-BH-CCK8, CCK-2 receptor on transiently transfected COS-7 cells. How it is done: as §2
Experiment [8] has as its target T1, human CCK-2 receptor. The experiment can be described thus: fitted [125I]-BH-CCK8 binding without competitor, displacement curve, CCK-2 receptor on transfected COS-7 cells. How it is done:
as §2

Experiment [9] has as its target T1, human CCK-2 receptor. The experiment can be described thus: cell-based or functional assay.

[ ]: non-standard residue; d: D form. pGlu = O=C1CC[C@@H](C(=O)O)N1

Turning to EEEEEA [hexapeptide E5A], the “ED50 (nM), proliferation of IMGE cells, thymidine uptake” value (“ED50 (nM), proliferation of IMGE cells” for short) in [1] is 0.5 nM.

Take LEEEEEA [heptapeptide LE5A]: the “ED50 (nM), proliferation of IMGE cells” value in experiment [1] worked out at 2.4 nM.

B1: GamideE8,9A (peptide)
peptide: [pGlu]GPWLEEAAEAYGWMDF-NH2
modifications: ends and bridges not checked
notes: Gamide mutant with Glu8 and Glu9 replaced by Ala; Synthesised by Auspep
As for B1, the “ratio IC50 GamideE8,9A/IC50 Gamide” value with human CCK-2 receptor [2] is 2.2; with human CCK-2 receptor [4], 4.1. The values for the IC50 with human CCK-2 receptor [3], with human CCK-2 receptor [5] and with human CCK-2 receptor [7] were 2.8 nM, 58.2 nM and 112 nM, respectively. The “% Maximum Binding” value with human CCK-2 receptor [6] was found to be 97.8%; with human CCK-2 receptor [8] it was 98.4%.

Consider EEEEEAY [heptapeptide E5AY], for which the “ED50 (nM), proliferation of IMGE cells” value in [1] was found to be 1.1 nM.

LEEEEEAYG [nonapeptide LE5AYG]: in [1], the “ED50 (nM), proliferation of IMGE cells” value was 1 nM.

Consider LEEEEE [hexapeptide LE5], for which the “ED50 (nM), proliferation of IMGE cells” value in experiment [1] came out at 0.9 nM.

B2: amidated gastrin17 (Gamide) (peptide)
peptide: XGPWLEEEEEAYGWMDF
modifications: N-terminal pyroglutamate (Z); C-terminal phenylalanine amide
notes: Synthetic peptide bought from Bachem; Also tested with 1 uM DFO or with 8 moles Bi3+ per mole; also called G17
The molecule B2 yielded an inositol phosphate turnover with human CCK-2 receptor [9] of 4 fold. Also, the entries for the “% Maximum Binding” value in the experiment with human CCK-2 receptor [6] and in the experiment with human CCK-2 receptor [8] were 100% and 94.2%, respectively.

B3: GamideE7A (peptide)
peptide: [pGlu]GPWLEAEEEAYGWMDF-NH2
modifications: ends and bridges not checked
notes: Gamide mutant with Glu7 replaced by Ala; Synthesised by Auspep
Consider B3, for which the figures for the “ratio IC50 GamideE7A/IC50 Gamide” value with human CCK-2 receptor [2] and in the experiment with human CCK-2 receptor [4] were 2.4 and 1.4, respectively. Further, the results for the concentration for half-maximal inhibition (IC50) in the experiment with human CCK-2 receptor [3], with human CCK-2 receptor [5] and with human CCK-2 receptor [7] were 3.1 nM, 25.1 nM and 37 nM, respectively. Further, the “% Maximum Binding” value in the experiment with human CCK-2 receptor [6] came to 96.7%; with human CCK-2 receptor [8], 92%.
